Source: the supplement of paper PMC9112550, “Optimization of the antimicrobial peptide Bac7 by deep mutational scanning” (BMC Biology, 2022)

What follows are sequences tested on Escherichia coli TOP10 (assay: shrunken log2 fold change of peptide-encoding DNA abundance (4.5 h post-induction vs induction); higher = less antimicrobial activity (less host growth inhibition)). Conditions: time post-induction: 4.5 h; library: site-saturation at positions 5, 18, 19, 20.
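Also: peptides expressed intracellularly from a pBAD plasmid library in pooled LB shake-flask culture, induced with 0.3% L-arabinose, DNA abundance read by NGS, three biological replicates, DESeq2 with apeglm shrinkage.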

First: RRIRGRPPRLPRPRPRPRKMPRP
Second: RRIRHRPPRLPRPRPRPLIMPRP
The “shrunken log2 fold change” value of the first is higher: 0.949 for the first, -0.561 for the second.

Compared with RRIRGRPPRLPRPRPRPGVPPRP, RRIRMRPPRLPRPRPRPDHLPRP is lower in “shrunken log2 fold change” value: 1 for the first, -0.0674 for the second.

First: RRIRFRPPRLPRPRPRPSPLPRP
Second: RRIRGRPPRLPRPRPRPPGDPRP
The “shrunken log2 fold change” value of the first is lower: -0.0981 for the first, 1.18 for the second.

Going from RRIRRRPPRLPRPRPRPRYLPRP to RRIRGRPPRLPRPRPRPSPGPRP, the “shrunken log2 fold change” value rises from -0.0373 to 0.732.

Going from RRIRVRPPRLPRPRPRPAHTPRP to RRIRLRPPRLPRPRPRPWLTPRP, the “shrunken log2 fold change” value falls from 0.109 to -0.18.

First: RRIRSRPPRLPRPRPRPANTPRP
Second: RRIRGRPPRLPRPRPRPRQEPRP
The “shrunken log2 fold change” value of the first is lower: -0.268 for the first, 0.527 for the second.

RRIRERPPRLPRPRPRPGIGPRP and RRIRFRPPRLPRPRPRPTIWPRP are within 0.2 log units of each other in “shrunken log2 fold change” value: -0.0295 for the first, -0.000248 for the second.

RRIRFRPPRLPRPRPRPGHQPRP and RRIRLRPPRLPRPRPRPYTEPRP are within 0.2 log units of each other in “shrunken log2 fold change” value: -0.233 for the first, -0.284 for the second.

RRIRRRPPRLPRPRPRPYDYPRP and RRIRPRPPRLPRPRPRPNVCPRP are within 0.2 log units of each other in “shrunken log2 fold change” value: 0.00863 for the first, -0.169 for the second.

Going from RRIRRRPPRLPRPRPRPLPMPRP to RRIRHRPPRLPRPRPRPFSVPRP, the “shrunken log2 fold change” value falls from 0.541 to -1.26.

RRIRMRPPRLPRPRPRPQCMPRP and RRIRFRPPRLPRPRPRPGVKPRP are within 0.2 log units of each other in “shrunken log2 fold change” value: -0.0822 for the first, -0.0657 for the second.

RRIRNRPPRLPRPRPRPCERPRP and RRIRRRPPRLPRPRPRPEDLPRP are within 0.2 log units of each other in “shrunken log2 fold change” value: -0.00992 for the first, -0.00437 for the second.

Going from RRIRMRPPRLPRPRPRPVSVPRP to RRIRDRPPRLPRPRPRPHPLPRP, the “shrunken log2 fold change” value falls from 0.699 to -0.216.

RRIRERPPRLPRPRPRPPLYPRP and RRIRSRPPRLPRPRPRPPWHPRP are within 0.2 log units of each other in “shrunken log2 fold change” value: 0.127 for the first, 0.0809 for the second.

Going from RRIRDRPPRLPRPRPRPSALPRP to RRIRCRPPRLPRPRPRPIWMPRP, the “shrunken log2 fold change” value falls from 0.162 to -0.677.

Going from RRIRDRPPRLPRPRPRPEWNPRP to RRIRWRPPRLPRPRPRPEAIPRP, the “shrunken log2 fold change” value falls from 0.546 to 0.25.

RRIRTRPPRLPRPRPRPEACPRP and RRIRQRPPRLPRPRPRPESKPRP are within 0.2 log units of each other in “shrunken log2 fold change” value: -0.1 for the first, 0.0494 for the second.

First: RRIRSRPPRLPRPRPRPYYVPRP
Second: RRIRIRPPRLPRPRPRPKAKPRP
The “shrunken log2 fold change” value of the first is lower: -0.274 for the first, 0.329 for the second.

First: RRIRVRPPRLPRPRPRPPTFPRP
Second: RRIRMRPPRLPRPRPRPQLYPRP
The “shrunken log2 fold change” value of the first is lower: 0.0282 for the first, 0.284 for the second.

First: RRIRDRPPRLPRPRPRPDYTPRP
Second: RRIRQRPPRLPRPRPRPIDQPRP
The “shrunken log2 fold change” value of the first is lower: -0.276 for the first, -0.0135 for the second.

RRIRDRPPRLPRPRPRPQKKPRP and RRIRPRPPRLPRPRPRPGQFPRP are within 0.2 log units of each other in “shrunken log2 fold change” value: -0.0848 for the first, -0.0723 for the second.

First: RRIRNRPPRLPRPRPRPVISPRP
Second: RRIRVRPPRLPRPRPRPNGKPRP
The “shrunken log2 fold change” value of the first is higher: 0.156 for the first, -0.407 for the second.

First: RRIRARPPRLPRPRPRPGWLPRP
Second: RRIRWRPPRLPRPRPRPWWRPRP
The “shrunken log2 fold change” value of the first is higher: 0.285 for the first, 0.0782 for the second.

First: RRIRFRPPRLPRPRPRPVVCPRP
Second: RRIRIRPPRLPRPRPRPLKEPRP
The “shrunken log2 fold change” value of the first is higher: -0.0801 for the first, -0.568 for the second.

RRIRARPPRLPRPRPRPMIPPRP and RRIRWRPPRLPRPRPRPWEDPRP are within 0.2 log units of each other in “shrunken log2 fold change” value: 0.0233 for the first, -0.0135 for the second.

RRIRYRPPRLPRPRPRPNHCPRP and RRIRDRPPRLPRPRPRPAYRPRP are within 0.2 log units of each other in “shrunken log2 fold change” value: 0.00938 for the first, -0.0687 for the second.

RRIRNRPPRLPRPRPRPKCEPRP and RRIRHRPPRLPRPRPRPVATPRP are within 0.2 log units of each other in “shrunken log2 fold change” value: -0.0549 for the first, -0.079 for the second.

First: RRIRERPPRLPRPRPRPNYKPRP
Second: RRIRRRPPRLPRPRPRPVFSPRP
The “shrunken log2 fold change” value of the first is lower: -0.722 for the first, -0.0171 for the second.

Compared with RRIRERPPRLPRPRPRPCSEPRP, RRIRMRPPRLPRPRPRPRKGPRP is higher in “shrunken log2 fold change” value: 0.0641 for the first, 0.81 for the second.

RRIRGRPPRLPRPRPRPHDEPRP and RRIRWRPPRLPRPRPRPLVFPRP are within 0.2 log units of each other in “shrunken log2 fold change” value: 0.136 for the first, 0.0454 for the second.
